The test addresses SARS-CoV-2 main protease (M^pro), wild type (SARS-CoV-2). Nature of the test: crystal structure.

Turning to “SARS-CoV-2 main protease (M^pro), wild type (enzyme)”, the stoichiometry N is 2.

In general, stoichiometry N refers to the number of molecules, sites or subunits per partner or assembly.

Source of the values: doi:10.1101/2024.04.22.590578.
